Laboratory results taken from US20240132603A1 (HARBOUR BIOMED US, published 2024).
Like-named read-outs stand apart in the source and are kept apart here.

Key:
cynomolgus monkey CCR8 [1] = target: T1, cynomolgus monkey CCR8 (cynomolgus monkey, UniProt G7NYJ2 1-355); experiment: FACS, CHO-K1-CynoCCR8 cells
T1 construct: whole, on cells; also called CynoCCR8
Summary of the method: (§1)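 Anti-CCR8 antibodies titrated in 5-fold steps from 200 nM onto 1E6 cells/mL CHO-K1-CynoCCR8 in DPBS/2% FBS, 1 h at 4 °C. Bound antibody detected with 1:1000 secondary antibody, 40 min at 4 °C, then flow cytometry.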

human CCR8 [2] = target: T2, human CCR8 (human, UniProt P51685 1-355); experiment: FACS, HEK293-hCCR8 cells
T2 construct: whole, on cells; construct used for the overexpressing cell lines is not described; also called hCCR8
Summary of the method: (§2)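 Flow cytometry measures antibody binding to the overexpressing cells. These are first incubated at 4 °C for 1 h with test antibody titrated 5-fold down from 200 nM, then for 40 min with secondary antibody diluted 1:1000.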

human CCR8 [3] = target: T2, human CCR8; experiment: FACS on HEK293 cells overexpressing human CCR8
Protocol: Cells overexpressing human CCR8 were digested with pancreatin, counted and resuspended to a cell density of 1E6 cells/mL. The cell suspension was added to a 96-well V-bottom plate at 100 μL/well and centrifuged at 300 g for 5 min, and the supernatant was discarded. The anti-CCR8 antibodies provided herein was used as a primary antibody and diluted in a 5-fold gradient with an FACS buffer (DPBS containing 2% FBS) from 200 nM. The diluted primary antibody was added at 100 μL/well to resuspend the cells, and the mixture was incubated at 4° C. for 1 h. The plate was washed twice with DPBS and centrifuged at 300×g for 5 min, and the supernatant was discarded. The secondary antibody diluted in a 1:1000 ratio with an FACS buffer was added at 100 μL/well to suspend the cells, and the mixture was incubated at 4° C. for 40 min. The plate was washed twice with DPBS and centrifuged at 300×g for 5 min, and the supernatant was discarded. DPBS was added at 200 μL/well to suspend the cells, and the mixture was loaded on an FACS machine for analysis.

cynomolgus monkey CCR8 [4] = target: T1, cynomolgus monkey CCR8; experiment: FACS, CHO-K1-CynoCCR8 cells; remark: listed apart in the source
Summary of the method: as §1

human CCR8 [5] = target: T2, human CCR8; experiment: FACS, CHO-K1-hCCR8 cells
Summary of the method: as §2

human CCR8 [6] = target: T2, human CCR8; experiment: FACS, HEK293-hCCR8 cells; remark: listed apart in the source
Summary of the method: as §2

human CCR8 [7] = target: T2, human CCR8; experiment: FACS, Baf3-hCCR8 cells
Summary of the method: as §2

human CCR8 [8] = target: T2, human CCR8; experiment: FACS competition on HEK293-hCCR8 cells against a biotin-labelled anti-CCR8 antibody at its EC80; the labelled antibody of this panel is not named on the sheet
Protocol: (§3) The antibody was conjugated with Sulfo-NHS-LC-Biotin at a molar ratio of 5:1 (1 mol antibody was added to 5 mol Sulfo-NHS-LC-Biotin) with reference to the product instructions (ThermoFisher, Cat No. A39257) and incubated on ice for 2 h. The coupled antibody was purified with a Zeba desalting column (ThermoFisher, Cat No. 89882). Cells overexpressing human CCR8, HEK293-hCCR8, were added to a V-bottom 96-well plate at a density of 1E5 cells/well and centrifuged at 300 g for 5 min, and the supernatant was discarded. The competitive antibody was serially diluted in a ratio of 1:10 from 200 nM to obtain 8 concentration points. The Biotin-antibody and the competition antibody were mixed in a 1:1 ratio on an HEK293 cell line overexpressing human CCR8 by the binding EC₈₀ concentration. The cells in the 96-well plate were resuspended and incubated at 4° C. for 1 h. The plate was washed twice with DPBS at 200 μL/well. The secondary antibody diluted in a 1:1000 ratio was added at 100 μL/well, and the mixture was incubated at 4° C. for 40 min. The plate was washed twice with DPBS at 200 μL/well. Finally, DPBS was […] at 200 μL/well to suspend the cells, and the mixture was loaded on an FACS machine for analysis.

human CCR8 [9] = target: T2, human CCR8; experiment: as above; remark: listed apart in the source
Protocol: as §3

human CCR8 [10] = target: T2, human CCR8; experiment: as above; remark: listed apart in the source
Protocol: as §3

human CCR8 [11] = target: T2, human CCR8; experiment: as above; remark: listed apart in the source
Protocol: as §3

human CCR8 [12] = target: T2, human CCR8; experiment: as above; remark: listed apart in the source
Protocol: as §3

human CCR8 [13] = target: T2, human CCR8; experiment: cell-based or functional assay

T2 sequence (P51685 whole entry): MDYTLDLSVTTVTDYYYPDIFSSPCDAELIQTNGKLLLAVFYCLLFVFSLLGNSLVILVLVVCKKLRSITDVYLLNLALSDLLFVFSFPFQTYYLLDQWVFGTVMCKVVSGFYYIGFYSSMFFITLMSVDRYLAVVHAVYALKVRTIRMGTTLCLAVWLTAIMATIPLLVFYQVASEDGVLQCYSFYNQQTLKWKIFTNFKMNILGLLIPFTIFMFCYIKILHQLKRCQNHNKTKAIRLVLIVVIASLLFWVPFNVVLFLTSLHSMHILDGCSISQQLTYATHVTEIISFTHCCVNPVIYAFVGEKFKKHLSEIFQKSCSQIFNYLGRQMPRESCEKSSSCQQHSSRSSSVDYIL
T1 sequence (G7NYJ2 entry or part of it): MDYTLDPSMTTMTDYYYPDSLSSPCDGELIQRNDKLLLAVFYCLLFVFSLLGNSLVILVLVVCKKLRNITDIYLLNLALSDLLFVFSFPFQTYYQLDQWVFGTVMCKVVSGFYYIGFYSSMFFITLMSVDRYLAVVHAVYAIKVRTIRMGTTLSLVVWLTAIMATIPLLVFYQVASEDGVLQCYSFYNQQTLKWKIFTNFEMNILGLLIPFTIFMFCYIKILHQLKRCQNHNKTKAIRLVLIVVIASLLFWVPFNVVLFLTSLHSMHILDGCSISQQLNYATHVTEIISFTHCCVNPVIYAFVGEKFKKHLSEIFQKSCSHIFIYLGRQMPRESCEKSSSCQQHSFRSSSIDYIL

EC50 (cynomolgus monkey CCR8 [1]): 2.83 nM
EC50 (human CCR8 [2]): 0.66 nM
EC50 (read off the curve) (human CCR8 [3]): ~1 nM
EC50 (cynomolgus monkey CCR8 [4]): 1.06 nM
EC50 (human CCR8 [5]): 0.5 nM
EC50 (human CCR8 [6]): 0.99 nM
EC50 (human CCR8 [7]): 0.17 nM
IC50 (read off the curve) (human CCR8 [8]): ~2 nM
IC50 (read off the curve) (human CCR8 [9]): ~2 nM
IC50 (read off the curve) (human CCR8 [10]): ~3 nM
IC50 (read off the curve) (human CCR8 [11]): 1 to 2 nM
IC50 (read off the curve) (human CCR8 [12]): ~2 nM
Bottom %, blocking of CCL1-stimulated calcium flux (human CCR8 [13]): 12%
IC50(nM), blocking of CCL1-stimulated calcium flux (human CCR8 [13]): 1.47 nM
B1: PR004122 (antibody, human IgG1, kappa)
heavy: not shown
light: DIVMTQAAPSVPVTPGESVSISCRSSKSLLHSNGNTYLYWFLQRPGQSPQLLIYRMSNLASGVPDRFSGSGSGTAFTLRISRVEAEDVGVYYCMQHLEYPLTFGAGTKLELKRTVAAPSVFIFPPSDEQLKSGTASVVCLLNNFYPREAKVQWKVDNALQSGNSQESVTEQDSKDSTYSLSSTLTLSKADYEKHKVYACEVTHQGLSSPVTKSFNRGEC
notes: chimeric, human IgG1 constant region
